Measurements: the nanobody polyreactivity screen of Harvey et al. (2022)

Experiment: yeast display, Sf9 membrane polyspecificity reagent, FACS + sequencing; frameworks hold sequencing errors
Method in brief: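 Galactose-induced (36–48 hours) yeast carrying a synthetic nanobody display library were exposed to 10% biotinylated, detergent-solubilized Sf9 membrane reagent at 4 °C for 1 hour. FACS followed streptavidin microbead enrichment, using low and high (top ~1%) gates for expression (anti-HA) and reagent binding (streptavidin). Colony PCR, MiSeq 2 × 250 sequencing and CDR-length filtering followed. Labels for polyreactivity reflect the gate of origin.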

Sequence | polyreactivity (PSR sort gate)
QLQLVESGGGLVQAGGSLRLSCAASGSTFPLYAMGWYRQSPGKERELVASITTGGGNTYYADSVKGRFTISRDNAKNTVYLKMNSLKPEDTAVDYCAKPYHIGLSGRRTYDYWGQGTQVTVSS | high polyreactivity
QLQLVESGGGLVQAGGSLRLSCAASVFTLRGYAMGWYRQATCKERELVADISGGGSTDYADSVKVRFTISRDNAKNTVYLQMNSLKPEDTAVYYCAAYGYLWWEMDYWGQGTQVTVSS | high polyreactivity
QLQLVESGGGLVQAGGSLRLSCAHSGRTFYVNAIGWSRQAPRKERELVATITDRGGRSYYADSVKGRFTISRDNAKNSVYLQMTSLKPEDTAVYYCAATRWYEVDYWGQGTQVTVSS | low polyreactivity
QLQLVESGGGLVQAGGSLRLSCAPSGYTFYLYAMGWYRQAPGKARELDAAISNRGGSTYYADSVKGRFTISRDNAKNTVYLQMKSLKPEDTAFYYCAATVGKAGGRYYDRRYYWGQGTQVTVSS | high polyreactivity
QLQLVESGGGLVQAGGSLRLSCASGLTFYWYAMGWYRQAPGKERELVAAINVRGGSTYYADSVKGRFTISRDNAKNTVYLQMNSLKPEDTAGYDCASYYPGFSYRYDYWGQGSQVTVSS | low polyreactivity
QLQLVESGGGLVQAGGSLRLSCASSGFTLTYAMGWDRQAPGKERELVAAISSSGVRTYYADSVKGRFTISRDNAKNTVYLQKNSLKPEDTALYYCNAFIHGSRSYISDYYWGQGTQVTVSS | high polyreactivity
QLQLVESGGGLVQAGGSLRLSSAASGRTFRWNAMGWYRQAPGKERELVAAISSGGSTYYADSVKGRFTISRDNAKNTVYLQMNSLKPEDTAVYYCAKTSFKYRWSYPVISMDYWGQGTQVTVSS | high polyreactivity
QLQLVESGGGLVQAGGSLRLSSAPSGITLQYYAMGWYRQAPGKERELVAAISYRGGRTYYADSVKGRFTISRDNAKNTVYLQMNSLKPEDTAGYYCARRSSKPSSIQYYYWGQGTQVTVSS | high polyreactivity
QLQLVESGGGLVQAGGSLSLSCAASGSIFNSKRMGWYRPAPGKERELVAAITGGGSTNYADSVKGRFTISRDNAKNTVYLQMNSLKPEDTAVYYCAADYPPTFYYWYEEYEYWGQGTQVTVSS | low polyreactivity
QLQLVESGGRLVQAGGSLRLSCAASGRIFYANAMGWYRQAPGKERELVAAISSGGSTYYADSVKGRFTISRDNAKNTVLLQMNSLKPEDTAVYYCAVYTHKKVRPEYDYWGQGTQVTVSS | low polyreactivity
QLQLVESGRGLVQAGGSLRLRCAASGRTFNRYTMGGYRQAPGKERELVAAISRGAGTNYADSVKGRFTISRDNAKYTVYLQMKSLKPEDTAVYYCAAGYEIGYRTGRSGNTAHIYYWGQGTQVTVSS | high polyreactivity
QLQLVESGRGLVQAGGSLRLSCAASGIIFYYNAMGWYRQAPGKERELVARITWRAGSTYYADSVKGRFTISRDNAKNTVYLQMNSLKPEDTAVYYCAARFTTTGPRGYYYWGQGTQVTVSS | high polyreactivity
QLQLVESRGGLVQAGGSLRLSCASSGFIFKQNAMGWYRQAPGNERELVAAISVSGGSTYYADSVKGRFTISRDNAKNTVYLQMNSLKPEYSAVYYCNTRDRGDVVTGLDYWGQGTQVTVSS | low polyreactivity
QLQLVETGGGLVQAGGSLRLSCAASGRIYYGYAMGWYRPAPGKERELVAAISWSGGSTYYADSVKGRFTISRDNAKNTVYLQMNSLKPEDTAVYYCARDAPYLYRAFDYWGQGTQVTVSS | high polyreactivity
QLQLVETGGGLVQAGGSLRLSCAASGYIFVYNDMGWSRQAPGKERELVAAITFSGGITYYADSVKGRFTISRDNAKNTVYLQMNSLKPEDTAVYYCAAADYWFYYGYYLTMDYWGQGTQVTVSS | low polyreactivity
QQLQESGGGLVQAGGSLRLSCAASGSISGSVLMGLYRQAPGKEREFVASISLGGNTNYADSVKGRFTISRENGKITVFLQMNSLKPEVAAVYYCAAYISLFETHPYWGQGTQVTVRS | high polyreactivity
QVDLVESAGGLVQAGGSLRLSCAASGSIFPGYTMGWYRQAPGQERELVAAISRRGGSTYYADSVKGRFTISRDNAKNTVYLQMNSLIPEDTAVYYCAIVPDYRFEYWGQGSQVTVSS | high polyreactivity
QVELVDSGGGLVQAGGILRLSCPASGSTIPTNVMGWSRQAPGKERECVAAITWSVGSTYYADSVKGRFTISRDNAKNTVYLQMNSLKPEDTAVYYCTADSQVLSAPDDYWGQGTQVTVSS | low polyreactivity
QVELVESGGGLGQAGGSLRLSCAASGSTFASNTLGWYRQAPGKEREVVAAITQSGGTTYYADSVKGRFTISRDNAKNTVFLQMNSLKPEDTAVYYDYWGQGTQVTVSS | low polyreactivity
QVELVESGGGLVQAGGCLRLSCAASGGIFESYAMGWYRRAPGRERELVADSTSGGSTNYADSVKGRFTIAGDNAKNTLYLQMNSLKPEDTAVYYCAKEFYYSVGVNLGDSWGQGTQGTVSS | low polyreactivity
QVELVESGGGLVQAGGILRLSCAASGSTFSIYAMGWYRQGPGKERELVAAISGDGITKYADSVKGRFTISRDNAKNTVYLQMNSLKPEDTAVYYCNAHELTDDGKMDSWGQGTQVTVSS | low polyreactivity

Sequence | polyreactivity (PSR sort gate)
QVELVESGGGLVQAGGSLRLRCAASGLTFYYYPMGWYRQAPGKERELFAAIASVGSTYYADSVKGRFTISRDNATNTVYLQMNSLKPDDTAVYYCAAKSFWWHEDYWGQGTQVTVSS | low polyreactivity
QVELVESGGGLVQAGGSLRLSCAASGFIFTYYAMGWYSQAPWKERELVATISSGGGSTYYADSVKGRFTISRDNAKNTVYLQMYSLNPEDTAVYYCAASRRITGIRYINRYAYWGQGTQVTVSS | high polyreactivity
QVELVESGGGLVQAGGSLRLSCAASGFTFNGTAMGWYRQAPGKDRELVAAMSRGGSPSYADSVKGRFTISRDNAKKTVYLPMNSLKPEATAVYYCAAVSYGRFRRYEYWVQGTQVTVSS | high polyreactivity
QVELVESGGGLVQAGGSLRLSCAASGYIFNYYAMGWYRQAPGKERELVAAISTSGGSTYYADSVKGRFTISRDNAKNTVYLQMNSLKPEDTAVYYCAAVDYKANGYGYWGQGTQVTVSS | high polyreactivity
QVHFVESGGGLVQAGGSLSLSCAASGLTFSYYAMGWYRQAPGKERELVARISNSGGCTYYADSVKGRFTISRDNAKITVYLQMNSLKPEDTAVYYCAALHTSLHRNKYEYWGQGTQVTVSS | high polyreactivity
QVHHLESRGGLVQEGGSLPISCGASGSTFLRYALGWYRQAPGKVRELVADITTSGGITYYADSVKGRFTISRDNAKYTVYLQLNSLKPEDTAVYDCDYWGQGTQVTVSS | low polyreactivity
QVHHVESGGGLVQAGGSLRLSCAASGFIFTYNAMGWYRQAPGKERELVAAIRSGTNTSYADSVKGRFTISRDNAKNTVYLQMNSLKPEDTAVYYCNREVPEYQGFITPDGYWGQGTQVTVSS | low polyreactivity
QVHHVESGGGLVQAGGSLRLSCAASGGTFRVYTMGWYRQAPAKVRELVAAITRNGGSTYYADSVKGRFTISRDNAKNSVYVQMNSLKPDDTAVYYCAARGGVPYSHAYDYWGQGTQVTVSS | low polyreactivity
QVHHVESGGGLVQAGGSLRLSCAASGRIFYPYAMGWYRQAPGKERELVASITSGGGTYYADSVKGRFTISRDNAKNTVYLQMNSLKPEDTAVYYCAAKYYTSWIRYDYWGQGTQVTVSS | low polyreactivity
QVHHVESGGGLVQAGGSRRLSSAASRIIIDTNAMGWSSQAPGKERELVASISTRGGSTYYADSVKGRFTISRDNAKNTVYLQMISLKPANTPVYYCNAVQTYSGGYEYWGQGTQVTVSS | high polyreactivity
QVHIVESGGGLVQAGGSLRISCAASGRILLLYDMGWYRQAPGKERELVAAINWDGGYSYADSVKGRFTISRDNANNTVFLQMNSLKPADTAVYYCAKDDIWEHYDYWGQGTQVTVSS | low polyreactivity
QVHIVESGGGLVQAGGSLRLSCGASGFTFIYAMGWYRQAHAKEREMVAAITRSGGSTYYADSVKGRFTISRDNAKNTVYSQMNILKPEDTAFYYCAARLRYQGRGYRYWGQGTQVTVSS | high polyreactivity
QVHLEESCGGLVQAGGTLRLSCAASGSTFPRYVMGWYRQAPGKERELVAAITSGGSTYYADSVKGRFTISRDNAKNTVYLQMNRLKPEDTAVFYCAAGSYRVVWYDSWGQGTLVTVSS | high polyreactivity
QVHLEESGGGIVQAGGSLRLSCAASGFTFPVHAMGWYRQAPGKERQLVAAIRWIGGDTYYADSVKGRFTISRDNAKNTVYLQMNSLKPEDTAVYYCAAEDTDDYSIWFEYWGQGTQVTVSS | high polyreactivity
QVHLEHSAGGLVQAGGILRLSSPASGSIVVTNAMGWYRQAPGKERELVAAISNSGSSTYYADSVKGRFTISRDNSKNTVYLQMNSLKPEDTAVYYCAADEPTWDWSYPYGYWGQGTQVTVSS | high polyreactivity
QVHLLERGGGLVQAGGSLRLSCMASGSILGDSMSWYRQAPGKEHELVATIYDGGITYYADSMKGRFTISRDNAKNSVYLQMNSLRPEDTAVYYCGASFEGYSYHVYCGQGTQVTVSS | low polyreactivity
QVHLLESGGGLLQAGGSLLISCAAAGRTFGQNAMGWSRQAPGKARELVASIRSGGITDYADSVKGRYTISRDNAKYSVYLQMNSLKPEDTAVYYCNAEGVWWSTRYDSWGQGTQVTVSS | low polyreactivity
QVHLLESGGGLVKAGGILRLSCAASGYIFPRYAMGSYRQSPGKDRELVAAITSGGSTYYADSVKGRFTISRDNAKNTVYLQMNSLKPEDTAVYYCIDPYHGREYEWGQGTQVTVSS | high polyreactivity
QVHLQEIGGGLVQAGGSLRQSCAASGTISDSGLMGWYRQAPGKERELVAGISSGGITNYADSVKGRFTISRDNAKNTVYLQMNSLKPEDTAVYWGQGTQVTVSS | low polyreactivity
QVHLQERGGGLLQACGSQRLSCAASGSISEVQYMGWYRRAPGKEREFVAGIAPGATTYYADSVKCRFTISRDNAKNTVFLQMNSLNPEYTDVDYFEDRYVTETDHDYWGQGTQVTVCS | low polyreactivity
